Where no end group is shown, it is not given here. [ ]: non-standard residue; d: D form. cyHex = not defined here; Ac5c = NC1(C(=O)O)CCCC1; Sar = CNCC(=O)O
T1: human angiotensin 2 type 1 receptor (human, UniProt P30556 1-359)
T1 sequence (looked up): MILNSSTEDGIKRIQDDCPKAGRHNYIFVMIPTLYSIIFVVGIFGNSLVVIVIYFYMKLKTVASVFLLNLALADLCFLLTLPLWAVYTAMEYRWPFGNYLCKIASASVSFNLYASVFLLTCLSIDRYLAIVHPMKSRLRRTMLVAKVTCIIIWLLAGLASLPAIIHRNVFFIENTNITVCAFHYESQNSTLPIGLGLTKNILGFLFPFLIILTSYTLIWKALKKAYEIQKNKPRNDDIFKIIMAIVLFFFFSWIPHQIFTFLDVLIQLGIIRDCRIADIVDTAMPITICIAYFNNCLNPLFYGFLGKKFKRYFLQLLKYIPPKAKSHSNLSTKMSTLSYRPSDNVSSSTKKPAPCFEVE

T2: rat angiotensin 2 type 1 receptor (rat, UniProt P25095 1-359)
T2 sequence (looked up): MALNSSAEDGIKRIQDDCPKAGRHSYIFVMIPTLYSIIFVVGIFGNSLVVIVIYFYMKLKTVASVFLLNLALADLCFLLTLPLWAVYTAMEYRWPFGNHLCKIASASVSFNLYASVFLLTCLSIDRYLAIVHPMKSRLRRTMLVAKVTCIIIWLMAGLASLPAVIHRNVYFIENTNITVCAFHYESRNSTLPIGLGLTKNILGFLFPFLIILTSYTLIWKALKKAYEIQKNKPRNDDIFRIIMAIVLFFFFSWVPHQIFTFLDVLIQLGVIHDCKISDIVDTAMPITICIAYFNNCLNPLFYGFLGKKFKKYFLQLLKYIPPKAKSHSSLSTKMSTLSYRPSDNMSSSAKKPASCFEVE


Target: T1, human angiotensin 2 type 1 receptor
Test: cell-based or functional assay

| Binder | IP1 G-protein assay EC50 [nM] | IP1 G-protein assay Span | IP1 G-protein assay pEC50 |
| --- | --- | --- | --- |
| [Sar]RVY[Ac5c]HPM [SEQ ID NO: 23 (Sar-Arg-Val-Tyr-cyPen-His-Pro-Met)] | > 1.3 | < 103 | < 9.2 |
| [Sar]RVY[Ac5c]HPS [SEQ ID NO: 22 (Sar-Arg-Val-Tyr-cyPen-His-Pro-Ser)] | > 1.3 | – | > 9.2 |
| [Sar]RVY[cyHex]HPA (reading uncertain; also: printed as Sar-Arg-Val-Tyr-cyHex-His-Pro-Ala) [SEQ ID NO: 2 (Sar-Arg-Val-Tyr-cyHex-His-Pro-Ala)] | – | < 103 | < 9.2 |
| [Sar]RVY[Ac5c]HPL [SEQ ID NO: 19 (Sar-Arg-Val-Tyr-cyPen-His-Pro-Leu)] | > 1.3 | < 103 | < 9.2 |
| [Sar]RVY[Ac5c]HPF [SEQ ID NO: 24 (Sar-Arg-Val-Tyr-cyPen-His-Pro-Phe)] | < 1.3 | > 103 | < 9.2 |
| [Sar]RVY[Ac5c]HPV [SEQ ID NO: 20 (Sar-Arg-Val-Tyr-cyPen-His-Pro-Val)] | > 1.3 | < 103 | < 9.2 |
| [Sar]RVY[Ac5c]HPT [SEQ ID NO: 21 (Sar-Arg-Val-Tyr-cyPen-His-Pro-Thr)] | > 1.3 | – | > 9.2 |
| [Sar]RVY[Ac5c]HPI [SEQ ID NO: 18 (Sar-Arg-Val-Tyr-cyPen-His-Pro-Ile)] | > 1.3 | < 103 | < 9.2 |

Target: T2, rat angiotensin 2 type 1 receptor
Test: cell-based or functional assay

| Binder | IP1 G-protein assay EC50 [nM] | IP1 G-protein assay Span | IP1 G-protein assay pEC50 |
| --- | --- | --- | --- |
| [Sar]RVY[Ac5c]HPM [SEQ ID NO: 23 (Sar-Arg-Val-Tyr-cyPen-His-Pro-Met)] | > 0.6 | < 104 | < 9.2 |
| [Sar]RVY[Ac5c]HPS [SEQ ID NO: 22 (Sar-Arg-Val-Tyr-cyPen-His-Pro-Ser)] | > 0.6 | < 104 | < 9.2 |
| [Sar]RVY[cyHex]HPA (reading uncertain; also: printed as Sar-Arg-Val-Tyr-cyHex-His-Pro-Ala) [SEQ ID NO: 2 (Sar-Arg-Val-Tyr-cyHex-His-Pro-Ala)] | > 0.6 | – | > 9.2 |
| [Sar]RVY[Ac5c]HPL [SEQ ID NO: 19 (Sar-Arg-Val-Tyr-cyPen-His-Pro-Leu)] | > 0.6 | – | > 9.2 |
| [Sar]RVY[Ac5c]HPF [SEQ ID NO: 24 (Sar-Arg-Val-Tyr-cyPen-His-Pro-Phe)] | > 0.6 | < 104 | < 9.2 |
| [Sar]RVY[Ac5c]HPV [SEQ ID NO: 20 (Sar-Arg-Val-Tyr-cyPen-His-Pro-Val)] | > 0.6 | < 104 | < 9.2 |
| [Sar]RVY[Ac5c]HPT [SEQ ID NO: 21 (Sar-Arg-Val-Tyr-cyPen-His-Pro-Thr)] | > 0.6 | < 104 | < 9.2 |
| [Sar]RVY[Ac5c]HPI [SEQ ID NO: 18 (Sar-Arg-Val-Tyr-cyPen-His-Pro-Ile)] | > 0.6 | < 104 | < 9.2 |

Target: T1, human angiotensin 2 type 1 receptor
Test: cell-based or functional assay
Remark: another data set of the same source

| Binder | beta-arrestin2 assay EC50 [nM] | beta-arrestin2 assay Span | beta-arrestin2 assay pEC50 |
| --- | --- | --- | --- |
| [Sar]RVY[Ac5c]HPM [SEQ ID NO: 23 (Sar-Arg-Val-Tyr-cyPen-His-Pro-Met)] | > 3.2 | < 101 | < 8.5 |
| [Sar]RVY[Ac5c]HPS [SEQ ID NO: 22 (Sar-Arg-Val-Tyr-cyPen-His-Pro-Ser)] | > 3.2 | < 101 | < 8.5 |
| [Sar]RVY[cyHex]HPA (reading uncertain; also: printed as Sar-Arg-Val-Tyr-cyHex-His-Pro-Ala) [SEQ ID NO: 2 (Sar-Arg-Val-Tyr-cyHex-His-Pro-Ala)] | – | < 101 | – |
| [Sar]RVY[Ac5c]HPL [SEQ ID NO: 19 (Sar-Arg-Val-Tyr-cyPen-His-Pro-Leu)] | > 3.2 | < 101 | < 8.5 |
| [Sar]RVY[Ac5c]HPF [SEQ ID NO: 24 (Sar-Arg-Val-Tyr-cyPen-His-Pro-Phe)] | > 3.2 | > 101 | < 8.5 |
| [Sar]RVY[Ac5c]HPV [SEQ ID NO: 20 (Sar-Arg-Val-Tyr-cyPen-His-Pro-Val)] | > 3.2 | < 101 | < 8.5 |
| [Sar]RVY[Ac5c]HPT [SEQ ID NO: 21 (Sar-Arg-Val-Tyr-cyPen-His-Pro-Thr)] | > 3.2 | < 101 | < 8.5 |
| [Sar]RVY[Ac5c]HPI [SEQ ID NO: 18 (Sar-Arg-Val-Tyr-cyPen-His-Pro-Ile)] | > 3.2 | < 101 | < 8.5 |

Target: T2, rat angiotensin 2 type 1 receptor
Test: cell-based or functional assay
Remark: another data set of the same source

| Binder | beta-arrestin2 assay EC50 [nM] | beta-arrestin2 assay Span | beta-arrestin2 assay pEC50 |
| --- | --- | --- | --- |
| [Sar]RVY[Ac5c]HPM [SEQ ID NO: 23 (Sar-Arg-Val-Tyr-cyPen-His-Pro-Met)] | > 3.2 | < 105 | < 8.5 |
| [Sar]RVY[Ac5c]HPS [SEQ ID NO: 22 (Sar-Arg-Val-Tyr-cyPen-His-Pro-Ser)] | > 3.2 | < 105 | < 8.5 |
| [Sar]RVY[cyHex]HPA (reading uncertain; also: printed as Sar-Arg-Val-Tyr-cyHex-His-Pro-Ala) [SEQ ID NO: 2 (Sar-Arg-Val-Tyr-cyHex-His-Pro-Ala)] | – | < 105 | – |
| [Sar]RVY[Ac5c]HPL [SEQ ID NO: 19 (Sar-Arg-Val-Tyr-cyPen-His-Pro-Leu)] | > 3.2 | < 105 | < 8.5 |
| [Sar]RVY[Ac5c]HPF [SEQ ID NO: 24 (Sar-Arg-Val-Tyr-cyPen-His-Pro-Phe)] | > 3.2 | < 105 | < 8.5 |
| [Sar]RVY[Ac5c]HPV [SEQ ID NO: 20 (Sar-Arg-Val-Tyr-cyPen-His-Pro-Val)] | > 3.2 | < 105 | < 8.5 |
| [Sar]RVY[Ac5c]HPT [SEQ ID NO: 21 (Sar-Arg-Val-Tyr-cyPen-His-Pro-Thr)] | > 3.2 | < 105 | < 8.5 |
| [Sar]RVY[Ac5c]HPI [SEQ ID NO: 18 (Sar-Arg-Val-Tyr-cyPen-His-Pro-Ile)] | > 3.2 | < 105 | < 8.5 |

Reference: US20150105316A1 (TREVENA, published 2015)
